B1: r11_951_TrROS_Hall (parent)
chain: KKKYVIKVYFEDTGKEVEIEAESKEEALEAAKRLAEELGLKIKKVEIYP

Variants of: B1
Experiment: folding stability dG (cDNA display proteolysis); higher = more stable
Conditions: PBS, room temperature

Point of comparison: KKKYVIKVYFEDTGQEVEIEAESKEEALEAAKRLAEELGLKIKKVEIYP [K15Q], “folding stability dG” value 4.27 kcal/mol. Against it:
- KKKYVIKVYFEDTWKEVEIEAESKEEALEAAKRLAEELGLKIKKVEIYP [G14W] — higher, 4.61 kcal/mol
- KKKYVIKVYFEDTNKEVEIEAESKEEALEAAKRLAEELGLKIKKVEIYP [G14N] — higher, 4.43 kcal/mol
- KKKYVIKVYFEDTTKEVEIEAESKEEALEAAKRLAEELGLKIKKVEIYP [G14T] — higher, 4.41 kcal/mol
- KKKYVIKVYFEDTMKEVEIEAESKEEALEAAKRLAEELGLKIKKVEIYP [G14M] — higher, 4.29 kcal/mol
- KKKYVIKVYFEDTPKEVEIEAESKEEALEAAKRLAEELGLKIKKVEIYP [G14P] — lower, 4.26 kcal/mol
- KKKYVIKVYFEDTKKEVEIEAESKEEALEAAKRLAEELGLKIKKVEIYP [G14K] — higher, 4.37 kcal/mol
- KKKYVIKVYFEDTQKEVEIEAESKEEALEAAKRLAEELGLKIKKVEIYP [G14Q] — higher, 4.39 kcal/mol
- KKKYVIKVYFEDTLKEVEIEAESKEEALEAAKRLAEELGLKIKKVEIYP [G14L] — lower, 4.25 kcal/mol
- KKKYVIKVYFEDTSKEVEIEAESKEEALEAAKRLAEELGLKIKKVEIYP [G14S] — higher, 4.66 kcal/mol
- KKKYVIKVYFEDTVKEVEIEAESKEEALEAAKRLAEELGLKIKKVEIYP [G14V] — higher, 4.62 kcal/mol
- KKKYVIKVYFEDTRKEVEIEAESKEEALEAAKRLAEELGLKIKKVEIYP [G14R] — lower, 4.05 kcal/mol
- KKKYVIKVYFEDTYKEVEIEAESKEEALEAAKRLAEELGLKIKKVEIYP [G14Y] — higher, 4.5 kcal/mol
- KKKYVIKVYFEDTGKYVEIEAESKEEALEAAKRLAEELGLKIKKVEIYP [E16Y] — higher, 4.45 kcal/mol
- KKKYVIKVYFEDTGKRVEIEAESKEEALEAAKRLAEELGLKIKKVEIYP [E16R] — lower, 4.22 kcal/mol
- KKKYVIKVYFEDTGKMVEIEAESKEEALEAAKRLAEELGLKIKKVEIYP [E16M] — higher, 4.28 kcal/mol
- KKKYVIKVYFEDTGKKVEIEAESKEEALEAAKRLAEELGLKIKKVEIYP [E16K] — lower, 4.23 kcal/mol
- KKKYVIKVYFEDTGKAVEIEAESKEEALEAAKRLAEELGLKIKKVEIYP [E16A] — higher, 4.49 kcal/mol
- KKKYVIKVYFEDTGKHVEIEAESKEEALEAAKRLAEELGLKIKKVEIYP [E16H] — higher, 4.29 kcal/mol
- KKKYVIKVYFEDTGKTVEIEAESKEEALEAAKRLAEELGLKIKKVEIYP [E16T] — higher, 4.45 kcal/mol
- KKKYVIKVYFEDTGKFVEIEAESKEEALEAAKRLAEELGLKIKKVEIYP [E16F] — higher, 4.5 kcal/mol
- KKKYVIKVYFEDTGKCVEIEAESKEEALEAAKRLAEELGLKIKKVEIYP [E16C] — lower, 4.05 kcal/mol
- KKKYVIKVYFEDTGKGVEIEAESKEEALEAAKRLAEELGLKIKKVEIYP [E16G] — higher, 4.35 kcal/mol
- KKKYVIKVYFEDTGKLVEIEAESKEEALEAAKRLAEELGLKIKKVEIYP [E16L] — higher, 4.29 kcal/mol
- KKKYVIKVYFEDTGKNVEIEAESKEEALEAAKRLAEELGLKIKKVEIYP [E16N] — higher, 4.44 kcal/mol
- KKKYVIKVYFEDTGKDVEIEAESKEEALEAAKRLAEELGLKIKKVEIYP [E16D] — higher, 4.62 kcal/mol
- KKKYVIKVYFEDTGKVVEIEAESKEEALEAAKRLAEELGLKIKKVEIYP [E16V] — lower, 4.16 kcal/mol
- KKKYVIKVYFEDTGKWVEIEAESKEEALEAAKRLAEELGLKIKKVEIYP [E16W] — higher, 4.48 kcal/mol
- KKKYVIKVYFEDTGKQVEIEAESKEEALEAAKRLAEELGLKIKKVEIYP [E16Q] — lower, 4.2 kcal/mol
- KKKYVIKVYFEDTGKPVEIEAESKEEALEAAKRLAEELGLKIKKVEIYP [E16P] — lower, 4.21 kcal/mol
- KKKYVIKVYFEDTGKSVEIEAESKEEALEAAKRLAEELGLKIKKVEIYP [E16S] — higher, 4.38 kcal/mol
- KKKYVIKVYFEDTGKIVEIEAESKEEALEAAKRLAEELGLKIKKVEIYP [E16I] — higher, 4.55 kcal/mol
- KKKYVIKVYFEDTGDEVEIEAESKEEALEAAKRLAEELGLKIKKVEIYP [K15D] — lower, 4.17 kcal/mol
- KKKYVIKVYFEDTGNEVEIEAESKEEALEAAKRLAEELGLKIKKVEIYP [K15N] — higher, 4.63 kcal/mol
- KKKYVIKVYFEDTGWEVEIEAESKEEALEAAKRLAEELGLKIKKVEIYP [K15W] — lower, 4.23 kcal/mol
- KKKYVIKVYFEDTGVEVEIEAESKEEALEAAKRLAEELGLKIKKVEIYP [K15V] — higher, 4.37 kcal/mol
- KKKYVIKVYFEDTGTEVEIEAESKEEALEAAKRLAEELGLKIKKVEIYP [K15T] — higher, 4.5 kcal/mol
- KKKYVIKVYFEDTGEEVEIEAESKEEALEAAKRLAEELGLKIKKVEIYP [K15E] — higher, 4.35 kcal/mol
- KKKYVIKVYFEDTGMEVEIEAESKEEALEAAKRLAEELGLKIKKVEIYP [K15M] — lower, 4.16 kcal/mol
- KKKYVIKVYFEDTGHEVEIEAESKEEALEAAKRLAEELGLKIKKVEIYP [K15H] — higher, 4.54 kcal/mol
- KKKYVIKVYFEDTGREVEIEAESKEEALEAAKRLAEELGLKIKKVEIYP [K15R] — lower, 4.19 kcal/mol
- KKKYVIKVYFEDTGPEVEIEAESKEEALEAAKRLAEELGLKIKKVEIYP [K15P] — higher, 4.29 kcal/mol
- KKKYVIKVYFEDTGLEVEIEAESKEEALEAAKRLAEELGLKIKKVEIYP [K15L] — higher, 4.28 kcal/mol
- KKKYVIKVYFEDTGYEVEIEAESKEEALEAAKRLAEELGLKIKKVEIYP [K15Y] — higher, 4.52 kcal/mol
- KKKYVIKVYFEDTGIEVEIEAESKEEALEAAKRLAEELGLKIKKVEIYP [K15I] — lower, 4.22 kcal/mol
- KKKYVIKVYFEDTGFEVEIEAESKEEALEAAKRLAEELGLKIKKVEIYP [K15F] — higher, 4.38 kcal/mol
- KKKYVIKVYFEDTGGEVEIEAESKEEALEAAKRLAEELGLKIKKVEIYP [K15G] — lower, 4.19 kcal/mol
- KKKYVIKVYFEDTGCEVEIEAESKEEALEAAKRLAEELGLKIKKVEIYP [K15C] — lower, 3.19 kcal/mol
- KKKYVIKVYFEDTGAEVEIEAESKEEALEAAKRLAEELGLKIKKVEIYP [K15A] — lower, 4.22 kcal/mol
- KKKYVIKVYFEDTGSEVEIEAESKEEALEAAKRLAEELGLKIKKVEIYP [K15S] — higher, 4.28 kcal/mol
- KKKYVIKVYFEDTGKEDEIEAESKEEALEAAKRLAEELGLKIKKVEIYP [V17D] — lower, 3.74 kcal/mol
- KKKYVIKVYFEDTGKECEIEAESKEEALEAAKRLAEELGLKIKKVEIYP [V17C] — lower, 4.25 kcal/mol
- KKKYVIKVYFEDTGKEAEIEAESKEEALEAAKRLAEELGLKIKKVEIYP [V17A] — lower, 4.23 kcal/mol

Source: the MegaScale stability set (Tsuboyama et al. 2023)
